Measured values: patent publication US20240238445A1, “INHIBITORS AND USES THEREOF” (NEURACLE SCIENCE CO., LTD., priority 2021, published 2024)

Columns and labels:
FAM19A5 protein [1] = target: T1, FAM19A5 protein (Homo sapiens, UniProt Q7Z5A7); assay: ELISA binding of recombinant FAM19A5 to coated hFc-conjugated LRRC4 family ectodomains, fragments or synthetic peptides; conditions: coated 100 nM/well, FAM19A5 up to 10 nM
Experimental: Next, to confirm the above co-immunoprecipitation results, an ELISA assay was used to measure the binding of the FAM19A5 protein to either the full-length ectodomain of members of LRRC4 protein family or various LRRC4B ectodomain protein fragments. Specifically, an ELISA plate was coated with one of the following LRRC4B ectodomain protein, which was conjugated to human Fc (100 nM/well): (1) full-length ectodomain of LRRC4 protein (amino acid residues 39-527 of SEQ ID NO: 1) (SEQ ID NO: 4); (2) full-length ectodomain of LRRC4B protein (amino acids 36-576 of SEQ ID NO: 2; i.e., construct #7 in Table 6) (SEQ ID NO: 5); (3) full-length ectodomain of LRRC4C protein (amino acids 45-527 of SEQ ID NO: 3) (SEQ ID NO: 6); (4) LRRC4B ectodomain fragment (amino acids 453-576 of SEQ ID NO: 2; i.e., construct #11 in Table 6) (SEQ ID NO: 7); (5) LRRC4B ectodomain fragment (amino acids 484-576 of SEQ ID NO: 2; i.e., construct #12 in Table 6) (SEQ ID NO: 8); (6) LRRC4B ectodomain fragment (amino acids 482-576 of SEQ ID NO: 2) (SEQ ID NO: 9); (7) LRRC4B ectodomain fragment (amino acids 482-497 of SEQ ID NO: 2) (SEQ ID NO: 10); and (8) LRRC4B ectodomain fragment (amino acids 498-576 of SEQ ID NO: 2; i.e., construct #13 in Table 6) (SEQ ID NO: 11). Then, recombinant FAM19A5 proteins (0.005, 0.01, 0.025, 0.05, 0.1, 0.25, 0.5, 1, 2.5, 5, and 10 nM) were added to the relevant wells, and the plates were incubated at 37° C. for 1 hour. Afterwards, the amount of LRRC4B-bound FAM19A5 protein was detected using HRP-conjugated anti-FAM19A5 (1-65) antibody.
As further confirmation, three synthetic polypeptides comprising amino acids 484-497 of SEQ ID NO: 2 (i.e., YTYFTTVTVETLET; SEQ ID NO: 65) were constructed: (1) FB-16 (GYTYFTTVTVETLETQ; SEQ ID NO: 17), (2) FB-20 ([…]; SEQ ID NO: 18), and (3) FB-28 ([…]; SEQ ID NO: 19). The peptides differed in their total length. The ability of these polypeptides to bind to recombinant FAM19A5 protein was assessed using an ELISA assay as described above.

[2] = tested on: mouse primary cortical neurons; assay: Neurite growth of mouse primary cortical neurons in vitro; type: cell-based; conditions: for neurite growth / neurite outgrowth: treated days 1 and 2, assessed day 3, anti-beta-tubulin III, LRRC4B fragment 0.006 to 60 nM, versus control
Experimental: Next, primary cortical neurons (day 1 postnatal) were cultured in vitro with varying concentrations (0.006 to 60 nM) of the LRRC4B (453-576) protein fragment (i.e., amino acid residues 453-576 of SEQ ID NO: 2; SEQ ID NO: 7), and then at day 3 post-initial culture, the effect on neurite growth was assessed by immunostaining the cells with anti-beta-tubulin III antibody. Cells cultured with DMSO (“Veh”) were used as control.
Mouse hippocampal neurons were treated with LRRC4B peptides at 1 and 2 DIV to determine neurite growth. It was measured by using 3 different parameters, which are total neurites length, number of primary and secondary neurites. After the neurons were stained with beta-tubulin III at 3 DIV, neurites length and branch points were measured using Fiji (Image J, NIH, Bethesda). Individual neurons were selected by hand and these parameters were counted using the Simple neurite tracer plugin. Mouse spinal motor neurons sampled at postnatal day 1 were treated with 10 nM of NS101 and LRRC4B-peptides (dFB-dWY-JM31 and dFB-DY-JM31) at 1 and 2 DIV and immunostained with Tau-5 antibody at 3 DIV. Total neurite length and number of somas in images were measured by Neurphology Image J plugin.

FAM19A5 protein [3] = target: T1, FAM19A5 protein; assay: Co-immunoprecipitation of FLAG-tagged LRRC4 family deletion constructs/fragments with recombinant FAM19A5 in HEK293 cells; type: binding; conditions: HEK293 cells expressing FLAG-tagged construct, recombinant FAM19A5 1 μM 30 minutes; IP anti-FLAG, blot anti-FAM19A5 (3-2)
Procedure, shortened: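 HEK293 cells expressing FLAG-tagged LRRC4B deletion constructs or LRRC4C (aa 354-527) / LRRC4 (aa 353-527) fragments were treated with 1 μM recombinant FAM19A5 for 30 min. Lysates immunoprecipitated with anti-FLAG and immunoblotted with anti-FLAG and anti-FAM19A5 (3-2) antibodies.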

[4] = day 3, compared to the control group

T1 sequence (Q7Z5A7 44-132): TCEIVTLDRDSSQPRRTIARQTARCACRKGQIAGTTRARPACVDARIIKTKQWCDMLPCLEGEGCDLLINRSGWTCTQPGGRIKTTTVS

**Q.** For GYTYFTTVTVETLETQPGEE [FB-20], which “binding to FAM19A5 protein (ELISA, in words)” value (FAM19A5 protein [1]) is on record?
**A.** The value was “able to bind to recombinant FAM19A5 protein with high affinity”.

**Q.** What about the “neurite growth / neurite outgrowth” value [2] of the same molecule?
**A.** The value was “Increased neurite outgrowth”.

B1: LRRC4B (498-576): LRRC4B ectodomain fragment, amino acids 498-576 of SEQ ID NO: 2 (protein)
chain: QPGEEALQPRGTEKEPPGPTTDGVWGGGRPGDAAGPASSSTTAPAPRSSRPTEKAFTVPITDVTENALKDLDDVMKTTK
**Q.** Which results are given for B1?
**A.** binding to FAM19A5 protein (co-immunoprecipitation) (FAM19A5 protein [3]): not able to do so; binding to FAM19A5 protein (ELISA, in words) (FAM19A5 protein [1]): failed to bind to FAM19A5

B2: LRRC4B (453-576): LRRC4B ectodomain fragment, amino acids 453-576 of SEQ ID NO: 2; FLAG-tagged or hFc-fused (protein)
chain: VSAVDPVAAGGTGSGGGGPGGSGGVGGGSGGYTYFTTVTVETLETQPGEEALQPRGTEKEPPGPTTDGVWGGGRPGDAAGPASSSTTAPAPRSSRPTEKAFTVPITDVTENALKDLDDVMKTTK
modifications: FLAG tag or human Fc
notes: FLAG-tagged or hFc-fused
**Q.** B2 was tested. Which “binding to FAM19A5 protein (co-immunoprecipitation)” value (FAM19A5 protein [3]) did it give?
**A.** Its value is “able to bind to the FAM19A5 protein with varying degree”.

**Q.** And the neurite length [2, 4]?
**A.** Its neurite length is “increased neurite length”.

**Q.** What about the “number of branching points” value [2, 4] of the same molecule?
**A.** Its value is “increased number of branching points”.

**Q.** What about the “number of primary and secondary neurites” value [2, 4] of the same molecule?
**A.** The value was “increased number of primary and secondary neurites”.

**Q.** And the “neurite growth / neurite outgrowth” value [2]?
**A.** The value was “increased neurite growth in a dose-dependent manner”.
